Patent US20230416351A1
pKd: −log10 of the molar value.

Biological target: recombinant VEGF165 protein (human) (UniProt P15692)
Test: SPR in vitro binding, drug and recombinant VEGF165, 37 C

recombinant VEGF165 protein (human), sequence (P15692 other isoform, or with tags, fused parts or gaps): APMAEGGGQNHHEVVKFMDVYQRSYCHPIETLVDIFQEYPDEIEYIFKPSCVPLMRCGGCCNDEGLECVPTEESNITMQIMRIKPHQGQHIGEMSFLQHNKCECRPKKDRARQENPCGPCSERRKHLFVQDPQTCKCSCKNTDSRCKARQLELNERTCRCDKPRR

pKd: 9.34
Substance: aflibercept (Fc fusion)
